Reference: patent US20070004636A1, “Method of degrading transcriptional factors of saccharometabolism-associated gene, method for inhibiting the degradation, and agent for inhibiting degradation and degradation inhibitor” (priority 2002, published 2007)

What was measured:
Assay type in all cases: biochemical
Settings in all cases: 1 hour at 37° C.
human HNF-1α = experiment: in vitro protein degradation test of HNF-1α by calpain (Western blotting)
Description: Using the HNF-1α expression plasmid, in vitro synthesis of HNF-1α protein was carried out using the TNT T7 Quick Coupled Transcription/Translation System. That is, the HNF-1α expression plasmid was mixed with TNT T7 Quick Master Mix, and then incubated for 1.5 hours at 30° C. in the presence of methionine to synthesize HNF-1α. Thereafter, immunoprecipitation was conducted by adding anti-Xpress antibody to the synthesized HNF-1α, mixing by inversion for 1 hour at 4° C., and then adding Protein G Sepharose 4 Fast Flow and mixing by inversion for an additional 1 hour at 4° C. Subsequently, Protein G Sepharose was collected by centrifugation and washed 3 times with washing buffer (50 mM Tris-HCl, pH 7.5/150 mM NaCl/0.2% Nonidet P-40), followed by rinsing with 200 mM Tris-HCl (pH 7.8) to obtain the HNF-1α sample as 20% slurry (hereunder, referred to as “HNF-1α slurry”).
Protein degradation tests were carried out in vitro by adding μ-calpain or m-calpain to the HNF-1α slurry, and incubating for 1 hour at 37° C. in the presence of 200 mM Tris-HCl (pH 7.8)/1 mM DTT/6 mM CaCl2. The final concentrations of the respective calpain in the reaction system were as follows: 50 units/mL of human μ-calpain; 50 μg/mL of rabbit m-calpain as a protein concentration; and 59 units/mL of rat m-calpain. For a control experiment, an HNF-1α slurry was incubated without the addition of calpain in a similar manner in the presence of calcium. Further, to test for protein degradation in the absence of calcium, a sample was prepared by adding 10 mM of EDTA instead of 6 mM of CaCl2 and was incubated in the same manner. The samples after incubation were added to an equal volume of 2×SDS sample buffer, heated for 5 minutes, and then subjected to 5-20% SDS-PAGE for separation. Thereafter, Western blotting was carried out to detect HNF-1α using anti-Omni/M21 antibody (Santa Cruz Biotechnology, Inc.), which recognizes a His-Xpress region, and anti-HNF-1α antibody/HNF-1α (C-19) antibody (Santa Cruz Biotechnology, Inc.). An ECL Western blotting detection kit was used for conducting the detection.
In-vitro protein degradation tests were carried out in the same manner as in Example 7, but the lysate of sf-9 cells that coexpressed m-calpain with calpain small subunit 1 was used as m-calpain. The final concentration of the lysate of the sf-9 cells that expressed these proteins in the reaction system was 1.75 mg/mL as a protein concentration. The final concentration of rat m-calpain in the reaction system was 59 units/mL. Detection of HNF-1α was performed in the same manner as Example 7, but only anti-HNF-1α antibody/HNF-1α (C-19) antibody was used.

human IPF-1 = experiment: in vitro protein degradation test of IPF-1 by calpain (Western blotting)
Description: (§1) Using the IPF-1 expression plasmid, synthesis of IPF-1 protein was carried out in vitro using the TNT T7 Quick Coupled Transcription/Translation System. That is, the IPF-1 expression plasmid was mixed with TNT T7 Quick Master Mix, and then incubated for 1.5 hours at 30° C. in the presence of methionine to synthesize IPF-1.
Protein degradation tests were carried out in vitro by adding μ-calpain or m-calpain to IPF-1, and incubating for 1 hour at 37° C. in the presence of 200 mM Tris-HCl (pH 7.8)/1 mM DTT/6 mM CaCl2. The final concentrations of each calpain in the reaction systems were as follows: 50 units/mL of human μ-calpain; 50 μg/mL of rabbit m-calpain as a protein concentration, and 59 units/mL of rat m-calpain. For a control experiment, IPF-1 was incubated without addition of calpain in the same manner in the presence of calcium. Further, to test for protein degradation in the absence of calcium, a sample was prepared by adding 10 mM of EDTA instead of 6 mM of CaCl2, and incubated in the same manner. The samples after incubation were added to an equal volume of 2×SDS sample buffer, heated for 5 minutes, and subjected to 5-20% SDS-PAGE for separation. Thereafter, Western blotting was carried out to detect IPF-1 using anti-Xpress antibody and anti-IPF1 (PDX-1) antibody/N-18 (Santa Cruz Biotechnology, Inc.). The ECL Western blotting detection kit was used for conducting the detection.
In-vitro protein degradation tests were carried out in the same manner as Example 10, but the lysate of sf-9 cells that coexpressed m-calpain with calpain small subunit 1 was used as m-calpain. The final concentration of the lysate of sf-9 cells that expressed these proteins in the reaction system was 2.33 mg/mL as a protein concentration. The final concentration of rat m-calpain in the reaction system was 59 units/mL. Detection of IPF-1 was performed in the same manner as Example 10, but only anti-IPF-1 antibody/N-18 was used.

human HNF-4α = experiment: in vitro protein degradation test of HNF-4α by calpain (Western blotting)
Description: as §1, with “HNF-4α” for “IPF-1”, “plasmid, in vitro” for “plasmid,”, “conducted” for “carried out in vitro”, “System (Promega, Inc.).” for “System.”, “HNF-4α.” for “IPF-1.”
The in vitro protein degradation test was carried out by adding m-calpain extracted from rabbit muscle (Protease, Calcium-Activated Neutral (calpain), Sigma Chemical Co.) at a final concentration of 50 μg/mL to the synthesized HNF-4α, and then incubating for 1 hour at 37° C. in the presence of 200 mM Tris-HCl (pH 7.8)/1 mM dithiothreitol (DTT)/6 mM CaCl2. To conduct a degradation test in the absence of calcium, a test sample was prepared by adding 10 mM ethylenediaminetetraacetic acid (EDTA) instead of 6 mM CaCl2, and the sample was then incubated in a similar manner. The samples after incubation were added to an equal volume of 2× sodium dodecyl sulfate (SDS) sample buffer (4% SDS/125 mM Tris-HCl, pH 6.8/20% glycerol/0.01% bromphenol blue (BPB)/10% β-mercaptoethanol), heated for 5 minutes, and subjected to 10% SDS-PAGE for separation. Thereafter, Western blotting was carried out to detect HNF-4α using anti-HNF-4α antibody/HNF-4α (C-19) antibody (Santa Cruz Biotechnology, Inc.) and anti-Xpress antibody (Invitrogen, Inc.). An ECL Western blotting detection kit (Amersham pharmacia biotech) was used for the detection.
The final concentration of human m-calpain in the reaction system was 2.33 mg/mL as the protein concentration of the lysate of sf-9 cells that expressed human m-calpain. The final concentration of rat m-calpain in the reaction system was 59 units/mL. A degradation test was also conducted in the same manner without addition of calpain. Further, to test for degradation in the absence of calcium, a sample was prepared by adding 10 mM of EDTA instead of 6 mM CaCl2, and a degradation test was conducted with the sample in a similar manner. The samples after incubation were added to an equal volume of 2×SDS sample buffer, heated for 5 minutes, and subjected to 5-20% SDS-PAGE for separation. Thereafter, Western blotting was carried out to detect HNF-4α using anti-HNF-4α antibody/HNF-4α (C-19) antibody. An ECL Western blotting detection kit was used for the detection.
An in vitro protein degradation test was carried out by adding μ-calpain to HNF-4α at a final concentration of 50 units/mL, and incubating for 1 hour at 37° C. in the presence of 200 mM Tris-HCl (pH 7.8)/1 mM DTT/6 mM CaCl2. […]

[1] = in the absence of calcium (10 mM EDTA instead of CaCl2)
[2] = in the presence of calcium (6 mM CaCl2), Western blotting

Row | Molecule | degradation of HNF-1α (human HNF-1α; [1]) | degradation of HNF-1α (human HNF-1α; [2]) | degradation of IPF-1 (human IPF-1; [1]) | degradation of IPF-1 (human IPF-1; [2]) | degradation of HNF-4α (human HNF-4α; [1]) | degradation of HNF-4α (human HNF-4α; [2])
1 | rat m-calpain: rat m-calpain (Calpain 2, rat recombinant, E. coli, Calbiochem, Inc.), positive control (protein) MAGIAMKLAKDREAAEGLGSHERAIKYLNQDYETLRNECLEAGALFQDPSFPALPSSLGFKELGPYSSKTRGIEWKRPTEICADPQFIIGGATRTDICQGALGDCWLLAAIASLTLNEEILARVVPLDQSFQENYAGIFHFQFWQYGEWVEVVVDDRLPTKDGELLFVHSAEGSEFWSALLEKAYAKINGCYEALSGGATTEGFEDFTGGIAEWYELRKPPPNLFKIIQKALEKGSLLGCSIDITSAADSEAVTYQKLVKGHAYSVTGAEEVESSGSLQKLIRIRNPWGQVEWTGKWNDNCPSWNTVDPEVRANLTERQEDGEFWMSFSDFLRHYSRLEICNLTPDTLTCDSYKKWKLTKMDGNWRRGSTAGGCRNYPNTFWMNPQYLIKLEEEDEDDEDGERGCTFLVGLIQKHRRRQRKMGEDMHTIGFGIYEVPEELTGQTNIHLSKNFFLTTRARERSDTFINLREVLNRFKLPPGEYVLVPSTFEPHKNGDFCIRVFSEKKADYQTVDDEIEANIEEIEANEEDIGDGFRRLFAQLAGEDAEISAFELQTILRRVLAKREDIKSDGFSIETCKIMVDMLDEDGSGKLGLKEFYILWTKIQKYQKIYREIDVDRSGTMNSYEMRKALEEAGFKLPCQLHQVIVARFADDELIIDFDNFVRCLVRLEILFKIFKQLDPENTGTIQLDLISWLSFSVL | not degraded | observed | not degraded | observed |  | 
2 | human μ-calpain: μ-Calpain extracted from human erythrocytes (Calpain 1, human erythrocytes; Calbiochem, Inc.) (protein, UniProt P07384 2-714; P04632 1-268, looked up) Calpain-1 catalytic subunit: SEEIITPVYCTGVSAQVQKQRARELGLGRHENAIKYLGQDYEQLRVRCLQSGTLFRDEAFPPVPQSLGYKDLGPNSSKTYGIKWKRPTELLSNPQFIVDGATRTDICQGALGDCWLLAAIASLTLNDTLLHRVVPHGQSFQNGYAGIFHFQLWQFGEWVDVVVDDLLPIKDGKLVFVHSAEGNEFWSALLEKAYAKVNGSYEALSGGSTSEGFEDFTGGVTEWYELRKAPSDLYQIILKALERGSLLGCSIDISSVLDMEAITFKKLVKGHAYSVTGAKQVNYRGQVVSLIRMRNPWGEVEWTGAWSDSSSEWNNVDPYERDQLRVKMEDGEFWMSFRDFMREFTRLEICNLTPDALKSRTIRKWNTTLYEGTWRRGSTAGGCRNYPATFWVNPQFKIRLDETDDPDDYGDRESGCSFVLALMQKHRRRERRFGRDMETIGFAVYEVPPELVGQPAVHLKRDFFLANASRARSEQFINLREVSTRFRLPPGEYVVVPSTFEPNKEGDFVLRFFSEKSAGTVELDDQIQANLPDEQVLSEEEIDENFKALFRQLAGEDMEISVKELRTILNRIISKHKDLRTKGFSLESCRSMVNLMDRDGNGKLGLVEFNILWNRIRNYLSIFRKFDLDKSGSMSAYEMRMAIESAGFKLNKKLYELIITRYSEPDLAVDFDNFVCCLVRLETMFRFFKTLDTDLDGVVTFDLFKWLQLTMFA Calpain small subunit 1: MFLVNSFLKGGGGGGGGGGGLGGGLGNVLGGLISGAGGGGGGGGGGGGGGGGGGGGTAMRILGGVISAISEAAAQYNPEPPPPRTHYSNIEANESEEVRQFRRLFAQLAGDDMEVSATELMNILNKVVTRHPDLKTDGFGIDTCRSMVAVMDSDTTGKLGFEEFKYLWNNIKRWQAIYKQFDTDRSGTICSSELPGAFEAAGFHLNEHLYNMIIRRYSDESGNMDFDNFISCLVRLDAMFRAFKSLDKDGTGQIQVNIQEWLQLTMYS | not degraded | observed | not degraded | observed | not observed | observed
